Experimental data reported in US20220064295A1 (ITABMED HK, published 2022).

T1: Recombinant Human CD19 Fc Chimera (R&D Systems, Inc) (human, UniProt P15391 20-291)
T1 construct: Bought reagent; also called huCD19.Fc; human CD19 antigen; Fc part of the bought chimera not given
T1 sequence (looked up): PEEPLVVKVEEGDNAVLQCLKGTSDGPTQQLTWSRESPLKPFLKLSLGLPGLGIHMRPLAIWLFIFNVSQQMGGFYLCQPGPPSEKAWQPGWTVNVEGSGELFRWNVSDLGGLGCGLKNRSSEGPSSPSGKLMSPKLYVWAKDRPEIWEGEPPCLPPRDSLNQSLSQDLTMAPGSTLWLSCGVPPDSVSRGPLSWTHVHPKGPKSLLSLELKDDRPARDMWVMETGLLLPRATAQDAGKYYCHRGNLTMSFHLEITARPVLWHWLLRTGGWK

T2: cynomolgus CD3 antigen construct cynoCD3εAA 1-27.Fc (cynomolgus monkey; human, UniProt Q95LI5 22-48)
T2 construct: range 1-27; not shown: human IgG Fc
T2 chain (looked up): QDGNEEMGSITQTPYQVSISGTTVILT

T3: Cynomolgus/Rhesus CD19 Protein (Fc Tag) (Sino Biological, Inc) (cynomolgus monkey (Cynomolgus/Rhesus), UniProt F7F486 20-292 (rhesus entry))
T3 construct: Bought reagent; also called cynoCD19.Fc; cynomolgus CD19 antigen
T3 sequence: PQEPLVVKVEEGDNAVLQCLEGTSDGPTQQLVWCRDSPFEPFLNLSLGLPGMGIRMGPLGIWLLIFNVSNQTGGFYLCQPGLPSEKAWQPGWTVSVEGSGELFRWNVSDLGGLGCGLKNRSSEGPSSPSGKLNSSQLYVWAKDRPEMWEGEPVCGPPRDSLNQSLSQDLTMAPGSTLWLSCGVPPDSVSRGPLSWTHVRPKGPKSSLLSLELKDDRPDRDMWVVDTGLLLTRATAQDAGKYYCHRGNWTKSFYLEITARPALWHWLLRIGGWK


Tests used:
Assay in all cases: BLI (Octet), antigen-Fc captured on anti-human Fc (AHC) biosensor, MSAP in solution
[1] = target: T1, Recombinant Human CD19 Fc Chimera (R&D …)
Method: (§1) The expression of the CD3 antigen constructs has been described in U.S. Pat. No. 8,846,042. The CD3 antigen constructs or the CD19 antigen (Cynomolgus/Rhesus CD19 Protein (Fc Tag), Sino Biological. Inc; Recombinant Human CD19 Fc Chimera, R&D Systems. Inc) were diluted to 0.02 mg/mL with dilution (PBS), and then immobilized on an anti-Human Fc capture (AHC) biosensor. […] Control wells containing PBS only were also set up. The detection results were analyzed using ForteBio Data Acquisition and ForteBio Data Analysis software.

[2] = target: T2, cynomolgus CD3 antigen construct …
Method: as §1

[3] = target: T3, Cynomolgus/Rhesus CD19 Protein (Fc Tag) …
Method: as §1

| Binder | Kd [1] [nM] | Kd [2] [nM] | Kd [3] [nM] |
| --- | --- | --- | --- |
| ITAB2007 CD19×CD3 MSAP (bispecific antibody, One anti-CD19 scFv is fused at the N-terminus of the VH and a second at the N-terminus of the VL of an anti-CD3 Fab fragment; also called CD19×CD3 MSAP ITAB2007; bispecific trivalent ITAB2007) chain 1: DVVMTQSPSSIPVTLGESVSISCRSSKSLQNVNGNTYLYWFQQRPGQSPQLLIYRMSNLNSGVPDRFSGSGSGTDFTLRISGVEPEDVGVYYCMQHLEYPLTFGAGTKLEIKGGGGSGGGGSGGGGSQVQLVQSGPELIKPGGSVKMSCKASGYTFTSYVMHWVRQKPGQGLEWIGYINPYNDGTKYNEKFKGRATLTSDKSSSTAYMELSSLRSEDSAVYYCARGTYYYGSRVFDYWGQGTTVTVSSGGGGSEVQLVESGGGLVQPGGSLRLSCAASGFTFNTYAMNWVRQAPGKGLEWVARIRSKYNNYATYYADSVKDRFTISRDDSKNTLYLQMNSLRAEDTAVYYCVRHGNFGNSYVSWFAYWGQGTMVTVSSASTKGPSVFPLAPSSKSTSGGTAALGCLVKDYFPEPVTVSWNSGALTSGVHTFPAVLQSSGLYSLSSVVTVPSSSLGTQTYICNVNHKPSNTKVDKKVEPKSCPPCS chain 2: DVVMTQSPSSIPVTLGESVSISCRSSKSLQNVNGNTYLYWFQQRPGQSPQLLIYRMSNLNSGVPDRFSGSGSGTDFTLRISGVEPEDVGVYYCMQHLEYPLTFGAGTKLEIKGGGGSGGGGSGGGGSQVQLVQSGPELIKPGGSVKMSCKASGYTFTSYVMHWVRQKPGQGLEWIGYINPYNDGTKYNEKFKGRATLTSDKSSSTAYMELSSLRSEDSAVYYCARGTYYYGSRVFDYWGQGTTVTVSSGGGGSQAVVTQEPSLTVSPGGTVTLTCRSSTGAVTTSNYANWVQQKPGQAPRGLIGGTNKRAPGTPARFSGSLLGGKAALTLSGVQPEDEAEYYCALWYSNLWVFGGGTKLTVLGQPKAAPSVTLFPPSSEELQANKATLVCLISDFYPGAVTVAWKADSSPVKAGVETTTPSKQSNNKYAASSYLSLTPEQWKSHRSYSCQVTHEGSTVEKTVAPTECPPCS | 0.891 | 18.8 | 8.91 |
| ITAB2009 CD19×CD3 MSAP (bispecific antibody, also called CD19×CD3 MSAP ITAB2009; bivalent format ITAB2009) chain 1: EVQLVESGGGLVQPGGSLRLSCAASGFTFNTYAMNWVRQAPGKGLEWVARIRSKYNNYATYYADSVKDRFTISRDDSKNTLYLQMNSLRAEDTAVYYCVRHGNFGNSYVSWFAYWGQGTMVTVSSGGGGSGGGGSGGGGSQAVVTQEPSLTVSPGGTVTLTCRSSTGAVTTSNYANWVQQKPGQAPRGLIGGTNKRAPGTPARFSGSLLGGKAALTLSGVQPEDEAEYYCALWYSNLWVFGGGTKLTVLSGGGGSQVQLVQSGPELIKPGGSVKMSCKASGYTFTSYVMHWVRQKPGQGLEWIGYINPYNDGTKYNEKFKGRATLTSDKSSSTAYMELSSLRSEDSAVYYCARGTYYYGSRVFDYWGQGTTVTVSSASTKGPSVFPLAPSSKSTSGGTAALGCLVKDYFPEPVTVSWNSGALTSGVHTFPAVLQSSGLYSLSSVVTVPSSSLGTQTYICNVNHKPSNTKVDKKVEPKSCPPCS chain 2: DVVMTQSPSSIPVTLGESVSISCRSSKSLQNVNGNTYLYWFQQRPGQSPQLLIYRMSNLNSGVPDRFSGSGSGTDFTLRISGVEPEDVGVYYCMQHLEYPITFGAGTKLEIKRTVAAPSVFIFPPSDEQLKSGTASVVCLLNNFYPREAKVQWKVDNALQSGNSQESVTEQDSKDSTYSLSSTLTLSKADYEKHKVYACEVTHQGLSSPVTKSFNRGECPPCS | 18.2 | 12.9 | 29.6 |
